B1: H10PDIP38 (PDIP38 with an N-terminal H10-tag) (natural protein)
chain: SSRNRPEGKVLETVGVFEVPKQNGKYETGQLFLHSIFGYRGVVLFPWQARLYDRDVASAAPEKAENPAGHGSKEVKGKTHTYYQVLIDARDCPHISQRSQTEAVTFLANHDDSRALYAIPGLDYVSHEDILPYTSTDQVPIQHELFERFLLYDQTKAPPFVARETLRAWQEKNHPWLELSDVHRETTENIRVTVIPFYMGMREAQNSHVYWWRYCIRLENLDSDVVQLRERHWRIFSLSGTLETVRGRGVVGREPVLSKEQPAFQYSSHVSLQASSGHMWGTFRFERPDGSHFDVRIPPFSLESNKDEKTPPSGLHW

Target: H10CLPX Zinc binding domain (CLPXZBD) (human)
Assay: SEC

Row | stoichiometry N | Molecule
1 | 2 | H10CLPX Zinc binding domain (CLPXZBD) (domain or fragment)
2 | 1 | B1
